Where a chain is given by its changes, count along the chain named.
T1: hCEACAM1, human CEACAM1 ECD (35-428) (human, UniProt P13688 35-428)
T1 construct: With 24 amino acid extension containing a His-Tag; also called hEACAM1
T1 sequence: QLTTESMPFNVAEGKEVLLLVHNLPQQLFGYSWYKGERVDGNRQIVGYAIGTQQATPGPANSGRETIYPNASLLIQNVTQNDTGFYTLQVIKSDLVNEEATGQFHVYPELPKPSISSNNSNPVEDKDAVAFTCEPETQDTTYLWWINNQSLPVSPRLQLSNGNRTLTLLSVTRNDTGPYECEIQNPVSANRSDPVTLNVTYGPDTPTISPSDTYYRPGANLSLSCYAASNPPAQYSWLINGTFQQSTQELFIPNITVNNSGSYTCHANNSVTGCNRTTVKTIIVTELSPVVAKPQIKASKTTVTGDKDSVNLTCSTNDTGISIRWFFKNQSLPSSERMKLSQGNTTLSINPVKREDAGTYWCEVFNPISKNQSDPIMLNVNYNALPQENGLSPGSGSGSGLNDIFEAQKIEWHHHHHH

T2: hCEACAM6, human CEACAM6 ECD (35-327) (human, UniProt P40199 35-327)
T2 construct: With 24 amino acid extension containing a His-Tag
T2 sequence: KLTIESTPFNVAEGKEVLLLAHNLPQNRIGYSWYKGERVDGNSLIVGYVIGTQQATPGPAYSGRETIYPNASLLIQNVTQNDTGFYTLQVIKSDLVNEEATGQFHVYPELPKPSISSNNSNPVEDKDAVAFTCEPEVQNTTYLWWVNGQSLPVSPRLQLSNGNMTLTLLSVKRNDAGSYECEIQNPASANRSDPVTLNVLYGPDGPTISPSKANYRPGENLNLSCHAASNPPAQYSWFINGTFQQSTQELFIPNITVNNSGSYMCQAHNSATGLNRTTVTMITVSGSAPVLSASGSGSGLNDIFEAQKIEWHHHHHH

T3: human CEACAM5 expressed on the surface of tumor cells (human, UniProt P06731 35-685)
T3 construct: Endogenous CEACAM5 of human tumor cells; also called hCEACAM5 on MKN45 cells; CEACAM5 on CR-IGR-034P primary colon tumor cells
T3 sequence: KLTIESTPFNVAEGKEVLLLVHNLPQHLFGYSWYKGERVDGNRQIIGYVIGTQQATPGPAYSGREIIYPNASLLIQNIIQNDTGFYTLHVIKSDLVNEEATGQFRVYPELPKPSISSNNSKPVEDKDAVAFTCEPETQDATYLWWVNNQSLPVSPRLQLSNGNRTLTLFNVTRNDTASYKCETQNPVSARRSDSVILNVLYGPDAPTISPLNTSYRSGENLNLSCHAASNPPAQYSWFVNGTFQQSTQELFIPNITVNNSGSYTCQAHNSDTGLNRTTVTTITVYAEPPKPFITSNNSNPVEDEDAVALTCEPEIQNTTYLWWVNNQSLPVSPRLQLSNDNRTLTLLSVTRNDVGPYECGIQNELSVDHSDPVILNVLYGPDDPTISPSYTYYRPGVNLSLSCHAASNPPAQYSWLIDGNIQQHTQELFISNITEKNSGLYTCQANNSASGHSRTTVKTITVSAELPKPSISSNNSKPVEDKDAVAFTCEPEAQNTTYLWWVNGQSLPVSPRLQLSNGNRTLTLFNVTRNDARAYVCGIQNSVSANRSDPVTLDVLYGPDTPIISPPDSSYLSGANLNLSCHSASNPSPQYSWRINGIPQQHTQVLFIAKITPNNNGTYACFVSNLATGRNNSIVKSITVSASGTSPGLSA

T4: hCEACAM5 NA1B1, human CEACAM5 N-A1-B1 domain (35-320) (human, UniProt P06731 35-320)
T4 construct: Followed by 6 amino acid His-Tag; also called hCEACAM5 N-ter-A1-B1
T4 sequence: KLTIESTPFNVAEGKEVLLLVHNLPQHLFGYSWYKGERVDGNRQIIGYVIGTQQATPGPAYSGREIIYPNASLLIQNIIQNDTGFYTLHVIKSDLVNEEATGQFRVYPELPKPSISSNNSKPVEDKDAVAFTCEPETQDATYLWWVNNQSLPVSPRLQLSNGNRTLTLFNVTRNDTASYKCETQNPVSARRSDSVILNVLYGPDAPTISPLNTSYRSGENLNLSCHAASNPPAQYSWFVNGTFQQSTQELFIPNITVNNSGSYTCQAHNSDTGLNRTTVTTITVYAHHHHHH

T5: CEACAM5 A3B3, human CEACAM5 A3-B3 domain (499-685) (human, UniProt P06731 499-685)
T5 construct: Followed by 6 amino acid His-Tag; also called hCEACAM5 A3-B3; human A3B3 domain
T5 sequence: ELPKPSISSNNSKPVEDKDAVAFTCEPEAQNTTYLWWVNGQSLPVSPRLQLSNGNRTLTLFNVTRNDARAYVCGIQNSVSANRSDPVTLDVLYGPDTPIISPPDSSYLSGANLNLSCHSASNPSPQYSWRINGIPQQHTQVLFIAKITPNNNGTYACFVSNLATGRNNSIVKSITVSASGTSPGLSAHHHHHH

B1: huMAb2-3 (antibody, human IgG1, kappa, V domains shown)
VH: EVQLQESGPGLVKPGGSLSLSCAASGFVFSSYDMSWVRQTPERGLEWVAYISSGGGITYAPSTVKGRFTVSRDNAKNTLYLQMNSLTSEDTAVYYCAAHYFGSSGPFAYWGQGTLVTVSS
VL: DIQMTQSPASLSASVGDRVTITCRASENIFSYLAWYQQKPGKSPKLLVYNTRTLAEGVPSRFSGSGSGTDFSLTISSLQPEDFATYYCQHHYGTPFTFGSGTKLEIKR
notes: Humanized MAb2, human IgG1 / Ckappa; also called MAb2_VL1cVH1a-IgG1
B2: huMAb2-1 (antibody, V domains shown)
VH: B1 VH with G44R, A60F, V93I, S120A
VL: DIQMTQSPASLSASVGDTVTITCRASENIFSYLAWYQQKPGKSPKLLVYNTKTLAEGVPSRFSGSGSGTQFSLTISSLQPEDFGSYYCQHHYGTPFTFGSGTKLEIK
notes: Humanized MAb2 (VL1 + VH1) fused to human IgG1 and human Ckappa constant domains; also called MAb2_VL1VH1-IgG1; MAb2VL1VH1-IgG1
B3: chMAb2 (antibody, human IgG1, kappa, V domains shown)
VH: EVQLQESGGVLVKPGGSLKLSCAASGFVFSSYDMSWVRQTPEKRLEWVAYISSGGGITYFPDTVQGRFTVSRDNAKNTLYLQMNSLKSEDTAIYYCAAHYFGSSGPFAYWGQGTLVTVSA
VL: B1 VL with D17E, R18T, P40Q, K45Q, R52K, D70Q, T74K, S76N, A84G, T85S
notes: Chimeric, human IgG1, Ck isotype; also called MAb2-IgG1; chimeric MAb2
B4: huMAb2-2 (antibody, V domains shown)
VH: B1 VH
VL: B2 VL with T18R, Q70D, G84A, S85T
notes: Humanized MAb2 (VL1a + VH1a) fused to human IgG1 and human Ckappa constant domains; also called MAb2_VL1aVH1a-IgG1; MA2_VL1aVH1a-IgG1
B5: huMAb2-4 (antibody, human IgG1, kappa, V domains shown)
VH: B1 VH with G44R, A60F, V93I, S120A
VL: B1 VL with R18T, D70Q, A84G, T85S
notes: Humanized MAb2, human IgG1 / Ckappa; also called MAb2_VL1d VH1-IgG1; MAb2_VL1dVH1-IgG1
B6: antibody MAb1 (antibody, IgG1, V domains shown)
VH: EVMLVESGGGLVKPGGSLKLSCAASGFTFSSYAMSWVRQTPEKRLEWVATISSGGSYIYYLDSVKGRFTISRDNAKNTLYLQMSSLRSEDTAMYYCARPAYYGNPAMDYWGQGTSVTVSS
VL: DILMTQSQKFMSTSVGDRVSVTCKASQNVGTNVAWYQQKPGQSPKPLIYSASYRYSGVPDRFTGSGSGTDFTLTISNVQSEDLAEYFCQQYNSYPLYTFGGGTKLEIK
B7: antibody MAb3 (antibody, IgG1, V domains shown)
VH: EVKLVESGGGLVKPGGSLTLPCAASGFTFSRYAMSWVRQTPEKRLEWVASISSGGDTYYPDSVKGRFTVSRDNARNILFLQMSSLRSEDTGMYYCARVNYYDSSFLDWWGQGTTLTVSS
VL: B6 VL with L3V, K9R, S14L, V15E, P46A, S93N
notes: Murine monoclonal from hybridoma, IgG1, kappa
B8: antibody MAb4 (antibody, IgG1, V domains shown)
VH: EVQLVESGGGLVKPGGSLKLSCAASGFTFSSYDMSWVRQTPEKRLEWVAFISSYGGRTYYADTVKGRFTISRDNAKNTLYLQMSSLKSEDTAMFYCAAHYFGTSGPFAYWGQGTLVTVSA
VL: DIQMTQSPASLSASVGETVTITCRASENIYSYFAWYQQKQGKSPQLLVYNAKILAEGVPSRFSGSGSGTQFSLKINSLQPEDFGTYYCQHHYGIPFTFGSGTKLELK
notes: as for B7
B9: antibody MAb5 (antibody, IgG1, V domains shown)
VH: ELQLVESGGVLVKPGGSLKLSCAASGFAFSSYDMSWVRQTPEKRLEWVTYINSGGGITYYPDTVKGRFTISRDNARNTLYLQMSSLKSEDTAIYYCTAHYFGSSGPFAYWGQGTLVTVSA
VL: B8 VL with F33L, I53T, A55T, T85S, I94T, L106I
notes: as for B7

target: T1, hCEACAM1, human CEACAM1 ECD (35-428); assay: ELISA

Row | Binder | percentage of binding compared to full binding with human CEACAM5 [%]
1 | B1 | 0.3
2 | B2 | 0.3
3 | B3 | 0.3
4 | B4 | 0.3
5 | B5 | 0.3

target: T2, hCEACAM6, human CEACAM6 ECD (35-327); assay: ELISA

Row | Binder | percentage of binding compared to full binding with human CEACAM5 [%]
6 | B1 | 0.3
7 | B2 | 0.2
8 | B3 | 0.3
9 | B4 | 0.3
10 | B5 | 0.3

target: T3, human CEACAM5 expressed on the surface …; assay: flow cytometry on MKN45 cells
Description: The apparent affinity of anti-CEACAM5 antibodies to hCEACAM5 expressed on the surface of human MKN45 (DSMZ, ACC 409) tumoral cells were determined by Guava® easyCyte™ 8HT Flow Cytometry System. MKN45 tumoral cells were coated at 40,000 cells/well on 96-well High Bind plate (MSD L15XB-3) and 100 μL/well of anti-CEACAM5 antibodies were added in 2-fold serial dilutions starting at 20 μg/ml up to 12 dilutions in assay diluant for 45 min at 4° C. and washed three times with PBS 1% BSA. 100 μL/well of goat anti-mouse IgG conjugated with Alexa647 (Invitrogen; # A2135) was added for 45 min at 4° C. and washed three times with PBS 1% BSA. The antibody binding was evaluated after centrifugation and resuspension of cells by adding 200 μl/well PBS 1% BSA and read using Guava® easyCyte™ 8HT Flow Cytometry System. Apparent KD and EC₅₀ values were estimated using BIOST@T-BINDING and BIOST@T-SPEED softwares, respectively.

Row | Binder | EC50 [nM]
11 | B6 | 16
12 | B7 | 6.2
13 | B8 | 4.9
14 | B9 | 0.73

target: T4, hCEACAM5 NA1B1, human CEACAM5 N-A1-B1 …; assay: ELISA on CEACAM5 domains

Row | Binder | percentage of binding compared to full binding with human CEACAM5 [%]
15 | B1 | 0.4
16 | B2 | 0.4
17 | B3 | 0.5
18 | B4 | 0.4
19 | B5 | 0.3

target: T5, CEACAM5 A3B3, human CEACAM5 A3-B3 …; assay: ELISA on CEACAM5 domains

Row | Binder | percentage of binding compared to full binding with human CEACAM5 [%]
20 | B1 | 100
21 | B2 | 100
22 | B3 | 100
23 | B4 | 100
24 | B5 | 100

Source: US20220340682A1 (Sanofi, published 2022)
